Reference: paper PMC11419155 (bioRxiv, 2024)

B1: recombinant Fab 3H4 (Fab, V domains shown)
VH: QVQLKESGPGLVAPSQSLSISCTVSGFSLTTFGIHWIRQPPGKGLEWLGVIWAAGTTNYNSTLKSRLTITKDNSRSQVFLKMNSLQTYDTAIYYCVREDYDYFFGLDYWGQGTSVTVSS
VL: QAVVTQESALTTSPGETVTLTCRSSTGAVTTSNYASWVQEKPDHLFIGLIGGTNNRAPGVPARFSGSLIGDKAALTITGAQTDDEAIYFCALWFSNHWVFGGGTKLTVL
B2: recombinant Fab 3B4 (Fab, V domains shown)
VH: QVQLHQPGAELVKPGASVNLSCKASGYTFTSYWMHWVKQRPGQGLEWIGEINPSSGRANYNEKFKNKATLTVDKSSITAYMHLSSLTSEDSAVYYCHWDYYAMDYWGQGTSVTVSS
VL: DIVLTQSPATLSVTPGDSVSLSCRASQSISNNLHWYQQKSHESPRLLFKSASQSISGIPSRFSGSGSGTDFTLSINSVETEDFGMYFCQQTNSWPLTFGTGTKLDLK

Biological target: recombinant HAstV1 capsid spike, histidine-tagged (Human astrovirus 1 (AAC34717.1), UniProt O12792)
Assay: BLI

recombinant HAstV1 capsid spike, histidine-tagged, sequence (O12792 429-645): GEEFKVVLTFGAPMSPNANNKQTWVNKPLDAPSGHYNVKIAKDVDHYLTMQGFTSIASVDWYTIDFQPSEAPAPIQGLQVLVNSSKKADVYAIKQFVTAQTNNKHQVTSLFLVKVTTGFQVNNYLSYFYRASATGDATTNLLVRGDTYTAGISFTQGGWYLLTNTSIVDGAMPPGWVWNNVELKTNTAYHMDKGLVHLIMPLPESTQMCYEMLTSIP

Binder | Kd
B1 | 0.49 nM
B2 | 11.8 nM
